Measured values from patent US20050256058A1.
Square brackets hold non-standard residues; d marks the D form. * marks the point of attachment. Hydrocinnamoyl = O=C(CCc1ccccc1)*; CH:CH‑COOEt = CCOC(=O)/C=C/*; AOrn = not defined here; Cbz = O=C(OCc1ccccc1)*

B1: Cbz-Ala-Ala-AAsn-CH═CH-COOEt (peptide)
peptide: Cbz-Ala-Ala-[AAsn]-{CH:CH‑COOEt}
B2: Cbz-Ala-Ala-AAsn-CH═CH-COOBzl (peptide)
peptide: AAN
modifications: not checked
B3: Cbz-Ala-Ala-AAsn-CH═CH-CON(nBu)2 (peptide)
peptide: AAN
modifications: not checked
B4: Cbz-Ala-Ala-AAsn-CH═CH-CO-Pip (peptide)
peptide: AAN
modifications: not checked
B5: Cbz-Ala-Ala-AAsn-CH═CH-CONHPh (peptide)
peptide: AAN
modifications: not checked
B6: Cbz-Ala-Ala-AAsn-CH═CH-CONHBzl (peptide)
peptide: AAN
modifications: not checked
B7: Cbz-Ala-Ala-AAsn-CH═CH-CONH-Bzl-4-F (peptide)
peptide: AAN
modifications: not checked
B8: Cbz-Ala-Ala-AAsn-CH═CH-CONHCH2CH2Ph (peptide)
peptide: Cbz-Ala-Ala-[AAsn]-{CH:CH‑CONHCH2CH2Ph}
B9: Cbz-Ala-Ala-AAsn-CH═CH-CON(CH3)Ph (peptide)
peptide: AAN
modifications: not checked
B10: Cbz-Ala-Ala-AAsn-CH═CH-CON(CH3)Bzl (peptide)
peptide: Cbz-Ala-Ala-[AAsn]-{CH:CH‑CON(CH3)Bzl}
B11: Cbz-Ala-Ala-AAsn-CH═CH-CON(CH3)CH2CH2Ph (peptide)
peptide: AAN
modifications: not checked
B12: Cbz-Ala-Ala-AAsn-CH═CH-CON(Bzl)Ph (peptide)
peptide: AAN
modifications: not checked
B13: Cbz-Ala-Ala-AAsn-CH═CH-CON(Bzl)2 (peptide)
peptide: Cbz-Ala-Ala-[AAsn]-{CH:CH‑CON(Bzl)2}
B14: Cbz-Ala-Ala-AAsn-CH═CH-CON(Bzl-4-OMe)Bzl (peptide)
peptide: AAN
modifications: not checked
B15: Cbz-Ala-Ala-AAsn-CH═CH-CON(Bzl-4-F)Bzl (peptide)
peptide: AAN
modifications: not checked
B16: Cbz-Ala-Ala-AAsn-CH═CH-CON(CH2-2-furyl)2 (peptide)
peptide: AAN
modifications: not checked
B17: Cbz-Ala-Ala-AAsn-CH═CH-CON(Bzl)-2-CH2-Napth (peptide)
peptide: Cbz-Ala-Ala-[AAsn]-{CH:CH‑CON(Bzl)‑2‑CH2‑Napth}
B18: Cbz-Ala-Ala-AAsn-CH═CH-CON(Bzl)-1-CH2-Napth (peptide)
peptide: Cbz-Ala-Ala-[AAsn]-{CH:CH‑CON(Bzl)‑1‑CH2‑Napth}
B19: Cbz-Ala-Ala-AAsn-CH═CH-CO-tetrahydroquinoline (peptide)
peptide: AAN
modifications: not checked
B20: Cbz-Ala-Ala-AAsn-CH═CH-CO-tetrahydroisoquinoline (peptide)
peptide: AAN
modifications: not checked
B21: Cbz-Ala-Ala-AAsn-CH═CH-CO-indoline (peptide)
peptide: Cbz-Ala-Ala-[AAsn]-{CH:CH‑CO‑indoline}
B22: Cbz-Ala-Ala-AAsn-CH═CH-CO-isoindoline (peptide)
peptide: AAN
modifications: not checked
B23: Cbz-Ala-Ala-AAsn-CH═CH-CO-(4-Ph-Py) (peptide)
peptide: AAN
modifications: not checked
B24: Cbz-Ala-Ala-AAsn-CH═CH-CO-MePhe-N(CH3)CH2CH2Ph (peptide)
peptide: AAN
modifications: not checked
B25: Cbz-Ala-Ala-AAsn-CH═CH-2-furyl (peptide)
peptide: AAN
modifications: not checked
B26: Cbz-Ala-Ala-AAsn-CH═CH-3-Py (peptide)
peptide: AAN
modifications: not checked
B27: Biotinyl-Ala-Ala-AAsn-CH═CH-COOEt (peptide)
peptide: AAN
modifications: not checked
B28: PhPr-Leu-ALys-CH═CH-COOEt (peptide)
peptide: LK
modifications: not checked
B29: PhPr-Leu-ALys-CH═CH-COOCH2Ph (peptide)
peptide: LK
modifications: not checked
B30: PhPr-Leu-ALys-CH═CH-CONHCH2Ph (peptide)
peptide: LK
modifications: not checked
B31: PhPr-Leu-ALys-CH═CH-CON(Me)CH2Ph (peptide)
peptide: LK
modifications: not checked
B32: PhPr-Leu-ALys-CH═CH-CON(CH2Ph)2 (peptide)
peptide: LK
modifications: not checked
B33: PhPr-Leu-ALys-CH═CH-CON(Bzl)-p-CH2C6H4F (peptide)
peptide: LK
modifications: not checked
B34: PhPr-Leu-ALys-CH═CH-CON(Me)CH2-1-naphthyl (peptide)
peptide: LK
modifications: not checked
B35: PhPr-Leu-ALys-CH═CH-CON(Bzl)CH2-2-naphthyl (peptide)
peptide: LK
modifications: not checked
B36: PhPr-Leu-ALys-CH═CH-CON(CH2-1-naphthyl2 (peptide)
peptide: LK
modifications: not checked
B37: PhPr-Leu-ALys-CH═CH-CON(4H-quinoline) (peptide)
peptide: LK
modifications: not checked
B38: PhPr-Leu-AOrn-CH═CH-COOEt (peptide)
peptide: Hydrocinnamoyl-Leu-[AOrn]-{CH:CH‑COOEt}
modifications: reading uncertain; also: printed as PhPr-Leu-AOrn-CH═CH-COOEt
B39: PhPr-Leu-AOrn-CH═CH-CONHCH2Ph (peptide)
peptide: Hydrocinnamoyl-Leu-[AOrn]-{CH:CH‑CONHCH2Ph}
modifications: reading uncertain
B40: PhPr-Leu-AOrn-CH═CH-CON(CH2Ph)2 (peptide)
peptide: Hydrocinnamoyl-Leu-[AOrn]-{CH:CH‑CON(CH2Ph)2}
modifications: reading uncertain
B41: PhPr-Ala-AOrn-CH═CH-COOEt (peptide)
peptide: Hydrocinnamoyl-Ala-[AOrn]-{CH:CH‑COOEt}
modifications: reading uncertain
B42: PhPr-Leu-AArg-CH═CH-COOEt (peptide)
peptide: LR
modifications: not checked
B43: PhPr-Leu-AArg-CH═CH-CONHCH2Ph (peptide)
peptide: LR
modifications: not checked
B44: PhPr-Leu-AArg-CH═CH-CON(CH2Ph)2 (peptide)
peptide: LR
modifications: not checked

Experiments:
Experiment in all cases: cell-based or functional assay
[1] = target: T1, schistosome legumain SmAE (Schistosoma mansoni asparaginyl endopeptidase) (Schistosoma mansoni), P09841
T1 chain: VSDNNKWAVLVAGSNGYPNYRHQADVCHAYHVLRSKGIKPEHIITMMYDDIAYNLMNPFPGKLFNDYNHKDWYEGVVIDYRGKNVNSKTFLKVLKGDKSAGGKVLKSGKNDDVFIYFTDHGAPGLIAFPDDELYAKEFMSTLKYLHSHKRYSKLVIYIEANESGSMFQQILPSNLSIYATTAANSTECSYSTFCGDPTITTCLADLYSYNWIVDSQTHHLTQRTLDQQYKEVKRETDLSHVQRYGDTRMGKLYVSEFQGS

[2] = target: T2, Clostripain, P09870
T2 chain: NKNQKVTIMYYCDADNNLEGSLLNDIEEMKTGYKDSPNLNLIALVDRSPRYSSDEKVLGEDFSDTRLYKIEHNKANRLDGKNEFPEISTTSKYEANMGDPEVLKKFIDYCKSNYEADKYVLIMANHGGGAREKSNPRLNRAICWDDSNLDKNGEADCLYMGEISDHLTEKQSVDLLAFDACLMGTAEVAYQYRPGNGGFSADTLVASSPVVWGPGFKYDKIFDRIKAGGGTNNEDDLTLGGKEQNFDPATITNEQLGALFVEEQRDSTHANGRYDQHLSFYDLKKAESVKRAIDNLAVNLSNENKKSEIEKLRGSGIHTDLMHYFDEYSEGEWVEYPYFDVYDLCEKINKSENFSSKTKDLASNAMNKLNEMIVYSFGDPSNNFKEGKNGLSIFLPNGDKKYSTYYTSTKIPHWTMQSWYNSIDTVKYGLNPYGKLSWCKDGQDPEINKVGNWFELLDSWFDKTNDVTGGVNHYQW

[3] = target: Gingipain R
[4] = target: Gingipain K

Binder	IC50 [1] [nM]	k2 [2] [M⁻¹ s⁻¹]	k2 [3] [M⁻¹ s⁻¹]	k2 [4] [M⁻¹ s⁻¹]
B1	31	–	–	–
B2	38	–	–	–
B3	550	–	–	–
B4	1000	–	–	–
B5	700	–	–	–
B6	1000	–	–	–
B7	800	–	–	–
B8	600	–	–	–
B9	60	–	–	–
B10	55	–	–	–
B11	600	–	–	–
B12	70	–	–	–
B13	45	–	–	–
B14	90	–	–	–
B15	60	–	–	–
B16	900	–	–	–
B17	70	–	–	–
B18	62	–	–	–
B19	70	–	–	–
B20	200	–	–	–
B21	70	–	–	–
B22	300	–	–	–

Binder	IC50 [1] [nM]	k2 [2] [M⁻¹ s⁻¹]	k2 [3] [M⁻¹ s⁻¹]	k2 [4] [M⁻¹ s⁻¹]
B23	750	–	–	–
B24	750	–	–	–
B25	> 2000	–	–	–
B26	> 2000	–	–	–
B27	10	–	–	–
B28	–	40800	289	3.28e+06
B29	–	20500	632	2.51e+06
B30	–	1050	20	236000
B31	–	6000	79	1.36e+06
B32	–	20000	65	2.13e+06
B33	–	13800	75	801000
B34	–	639	576	975000
B35	–	17500	98	811000
B36	–	2250	214	1.89e+06
B37	–	326	73	252000
B38	–	788	32	927000
B39	–	–	71	24700
B40	–	541	541	61600
B41	–	–	18	632000
B42	–	69600	–	1580
B43	–	287000	555000	–
B44	–	474000	804000	–
